Data reported in article PMC9945446, “DNMT1 inhibition by pUG-fold quadruplex RNA”.

How the values were obtained:
DNMT1 [1] = target: T1, DNMT1 (human, UniProt P26358 1-1616); test: EMSA; 100 mM KCl; undetectable; 50 mM Tris-HCl pH 7.5, 100 mM KCl (or LiCl), 2.5 mM MgCl2, 0.1 mM ZnCl2, 2 mM BME, 0.05% NP40, 5% glycerol, 0.1 mg/mL BSA, 0.1 mg/mL yeast tRNA; 30 C 1 h; 1% agarose gel in 1x TBE at 4 C; conditions: protein: recombinant; tags: MBP tag cleaved with PreScission protease; label: 5' 32P; unstructured
DNMT1 [2] = target: T1, DNMT1; test: EMSA; 100 mM KCl; 50 mM Tris-HCl pH 7.5, 100 mM KCl (or LiCl), 2.5 mM MgCl2, 0.1 mM ZnCl2, 2 mM BME, 0.05% NP40, 5% glycerol, 0.1 mg/mL BSA, 0.1 mg/mL yeast tRNA; 30 C 1 h; 1% agarose gel in 1x TBE at 4 C; conditions: protein: recombinant, tags: MBP tag cleaved with PreScission protease; for Kd: label: 5' 32P
DNMT1 [3] = target: T1, DNMT1; test: as above; conditions: protein: recombinant; tags: MBP tag cleaved with PreScission protease; label: 5' 32P; one pUG-fold in K+
DNMT1 [4] = target: T1, DNMT1; test: as above; conditions: protein: recombinant; tags: MBP tag cleaved with PreScission protease; label: 5' 32P; canonical G4

T1 sequence (P26358 whole entry): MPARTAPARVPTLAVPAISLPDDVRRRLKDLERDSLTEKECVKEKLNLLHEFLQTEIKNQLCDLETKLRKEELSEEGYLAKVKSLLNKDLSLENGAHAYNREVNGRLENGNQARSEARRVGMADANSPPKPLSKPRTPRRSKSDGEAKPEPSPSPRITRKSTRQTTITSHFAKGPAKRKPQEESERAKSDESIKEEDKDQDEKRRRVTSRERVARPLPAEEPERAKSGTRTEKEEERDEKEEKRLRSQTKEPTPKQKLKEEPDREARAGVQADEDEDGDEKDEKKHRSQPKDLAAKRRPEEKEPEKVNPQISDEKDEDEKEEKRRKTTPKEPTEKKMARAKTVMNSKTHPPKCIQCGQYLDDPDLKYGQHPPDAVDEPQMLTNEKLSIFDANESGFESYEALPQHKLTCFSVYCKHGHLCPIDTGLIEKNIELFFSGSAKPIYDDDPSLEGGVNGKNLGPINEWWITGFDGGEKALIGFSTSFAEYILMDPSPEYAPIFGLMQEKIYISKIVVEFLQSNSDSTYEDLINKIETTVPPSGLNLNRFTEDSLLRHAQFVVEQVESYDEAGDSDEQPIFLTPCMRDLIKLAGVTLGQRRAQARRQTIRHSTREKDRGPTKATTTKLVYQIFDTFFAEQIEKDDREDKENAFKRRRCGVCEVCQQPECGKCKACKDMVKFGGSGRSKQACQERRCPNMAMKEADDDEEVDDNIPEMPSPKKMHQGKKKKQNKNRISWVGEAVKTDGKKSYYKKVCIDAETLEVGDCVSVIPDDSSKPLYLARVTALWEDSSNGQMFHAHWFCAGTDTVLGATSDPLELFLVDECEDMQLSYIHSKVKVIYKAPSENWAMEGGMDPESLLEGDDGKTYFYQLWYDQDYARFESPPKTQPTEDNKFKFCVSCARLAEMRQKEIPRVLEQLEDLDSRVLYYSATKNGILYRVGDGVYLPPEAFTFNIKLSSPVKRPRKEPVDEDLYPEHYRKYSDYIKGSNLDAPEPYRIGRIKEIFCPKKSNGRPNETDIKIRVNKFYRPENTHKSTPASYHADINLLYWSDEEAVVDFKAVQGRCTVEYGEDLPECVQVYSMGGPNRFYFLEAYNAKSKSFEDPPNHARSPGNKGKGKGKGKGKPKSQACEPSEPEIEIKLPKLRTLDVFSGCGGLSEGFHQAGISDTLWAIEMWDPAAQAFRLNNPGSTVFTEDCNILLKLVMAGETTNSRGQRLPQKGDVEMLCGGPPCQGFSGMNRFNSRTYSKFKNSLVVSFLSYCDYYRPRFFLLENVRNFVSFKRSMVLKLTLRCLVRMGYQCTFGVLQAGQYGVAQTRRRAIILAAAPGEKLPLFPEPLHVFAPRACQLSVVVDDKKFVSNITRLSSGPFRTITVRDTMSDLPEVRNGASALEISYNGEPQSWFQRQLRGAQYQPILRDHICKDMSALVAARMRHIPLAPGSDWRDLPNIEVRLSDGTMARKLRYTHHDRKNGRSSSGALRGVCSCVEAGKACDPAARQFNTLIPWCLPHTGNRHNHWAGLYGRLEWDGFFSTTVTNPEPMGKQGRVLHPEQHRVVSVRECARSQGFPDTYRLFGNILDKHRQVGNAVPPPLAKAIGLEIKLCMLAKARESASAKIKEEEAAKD

AAAAAAAAAAAAAAAAAAAAAAAAAAAAAAAAAAAAAAAA (ssRNA) [(A)40]: no binding (DNMT1 [1]).

B1: (GU)30 (structured_RNA)
RNA: GUGUGUGUGUGUGUGUGUGUGUGUGUGUGUGUGUGUGUGUGUGUGUGUGUGUGUGUGUGU
Binder B1 has a Kd (DNMT1 [2]; pUG-fold, possibly two) of 13 nM.

GUGUGUGUGUGUGUGUGUGUGUGU (structured_RNA) [(GU)12] was tested, and the binding signal (DNMT1 [3]) was 5 fold weaker than (GU)20.

In the case of GGAAGGAAGGAAGGAAGGAAGGAAGGAAGGAAGGAAGGAA (structured_RNA) [(GGAA)10], the binding signal (DNMT1 [4]) is reported as 3 fold weaker than (GU)20.

B2: Hemimethylated DNA substrate (dsDNA)
DNA 1: TACGTATCCGTATCCGGTTACGTATCCGAATCCGTACCGT
DNA 2: ACGGTACGGATTCGGATACGTAACCGGATACGGATACGTA
modifications: 5mC at strand 1 positions 3,9,15,21,27,33,38
B2: binds (DNMT1 [2]; label: 32P end label, blunt).

GUGUGUGUGUGUGUGUGUGUGUGUGUGUGUGUGUGUGUGU (structured_RNA) [(GU)20] showed a Kd (DNMT1 [2]; pUG-fold (noncanonical G4) in K+) of 69 nM.
